Experimental data as given in article PMC7876468 (Frontiers in Medicine, 2021).
Where a chain is given by its changes, count along the chain named.

B1: CC3-hop (VHH)
VHH: EVQLQASGGGSVQAGGSLRLSCVTSQNLFEYYTMGWYRQVPGSQRERVALINNGGSTVAGSVEGRFTISRDHAKNSVYLQMNYLKPEDSAVYYCRAFGPADYWGQGTQVTVSS
notes: also called CC3 with the hop tail; original CC3-hop
B2: CC3-m5hop (VHH)
VHH: B1 VHH with Q3K
notes: Theoretical pI 8.40
B3: CC3-m2hop (VHH)
VHH: B1 VHH with Q5V, A6E, G16D, K85Q
notes: Theoretical pI 6.35
B4: CC3-m8hop (VHH)
VHH: B1 VHH with E1Q, Q3K, E63K
notes: Theoretical pI 9.18; also called variant 8
B5: CC3-m7hop (VHH)
VHH: B1 VHH with E1Q, Q3K, E63V
notes: Theoretical pI 9.0
B6: CC3-m4hop (VHH)
VHH: B1 VHH with Q5V, A6E
notes: Theoretical pI 7.04
B7: CC3-m9hop (VHH)
VHH: B1 VHH with E1Q, Q3K, E63K, P86R
notes: Theoretical pI 9.35; also called variant 9
B8: CC3-m3hop (VHH)
VHH: B1 VHH with Q5V, A6E, K85Q
notes: Theoretical pI 6.63
B9: CC3-m6hop (VHH)
VHH: B1 VHH with E1Q, Q3K
notes: Theoretical pI 8.75

Target: T1, CHIKV VLPs (Chikungunya virus, VLP strain not …, UniProt Q5XXP3)
T1 construct: also called CHIKV virus-like particles
Assay: MagPlex direct binding assay
Details: both partners purified

T1 sequence (Q5XXP3 whole entry, looked up): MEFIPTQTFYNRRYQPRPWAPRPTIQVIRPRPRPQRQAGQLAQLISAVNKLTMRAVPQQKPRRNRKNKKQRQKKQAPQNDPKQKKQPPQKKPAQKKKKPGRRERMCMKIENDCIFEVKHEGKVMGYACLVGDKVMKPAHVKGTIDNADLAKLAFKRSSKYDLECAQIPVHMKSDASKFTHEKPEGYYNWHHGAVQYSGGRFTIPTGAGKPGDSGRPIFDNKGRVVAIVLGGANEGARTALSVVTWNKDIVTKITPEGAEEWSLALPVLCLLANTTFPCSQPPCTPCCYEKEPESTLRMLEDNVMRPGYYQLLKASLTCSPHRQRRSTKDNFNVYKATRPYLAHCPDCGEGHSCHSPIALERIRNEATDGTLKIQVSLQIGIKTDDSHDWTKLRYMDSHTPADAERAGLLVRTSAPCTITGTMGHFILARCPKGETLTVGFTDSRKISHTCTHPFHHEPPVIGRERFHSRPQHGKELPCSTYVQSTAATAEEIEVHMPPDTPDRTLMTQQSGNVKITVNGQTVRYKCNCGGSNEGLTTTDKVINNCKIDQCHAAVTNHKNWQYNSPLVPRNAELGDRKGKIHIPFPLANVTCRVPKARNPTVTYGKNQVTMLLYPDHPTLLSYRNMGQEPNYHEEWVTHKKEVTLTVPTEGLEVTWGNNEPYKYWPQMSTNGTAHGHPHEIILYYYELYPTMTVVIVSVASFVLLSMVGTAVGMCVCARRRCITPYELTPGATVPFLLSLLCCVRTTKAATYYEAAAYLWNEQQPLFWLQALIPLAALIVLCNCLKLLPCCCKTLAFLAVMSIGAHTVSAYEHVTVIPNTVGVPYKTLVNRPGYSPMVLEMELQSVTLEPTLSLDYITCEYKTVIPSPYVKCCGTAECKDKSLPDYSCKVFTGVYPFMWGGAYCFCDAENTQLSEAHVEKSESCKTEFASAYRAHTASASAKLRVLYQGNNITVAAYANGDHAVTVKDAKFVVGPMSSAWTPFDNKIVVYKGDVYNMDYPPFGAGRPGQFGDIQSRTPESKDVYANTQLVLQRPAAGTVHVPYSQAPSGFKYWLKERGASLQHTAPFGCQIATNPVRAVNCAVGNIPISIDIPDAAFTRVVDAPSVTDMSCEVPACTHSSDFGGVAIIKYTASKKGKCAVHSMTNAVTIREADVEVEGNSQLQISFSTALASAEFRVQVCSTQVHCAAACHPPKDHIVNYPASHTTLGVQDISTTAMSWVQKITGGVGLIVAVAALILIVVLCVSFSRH

Row | Binder | binding result
1 | B1 | binds
2 | B2 | binds
3 | B3 | binds
4 | B4 | binds
5 | B5 | binds
6 | B6 | binds
7 | B7 | binds
8 | B8 | binds
9 | B9 | binds
